From doi:10.1101/2024.12.31.630897

Key:
[1] = biological target: GFP polybody (His-tagged GFP nanobody-TMS reconstituted in peptidisc); experiment: BLI
His-tagged GFP nanobody = experiment: BLI

“His-tagged GFP (green fluorescent protein) (from UniProt P42212 1-238) (natural protein)” was tested, and the Kd [1] was 2.72 nM and the Kd (His-tagged GFP nanobody) was 0.75 nM.
